From patent publication US20050100897A1, “NFAT transcription factors in tumor progression” (priority 2002, published 2005) come the findings set out here.

What all share (format): cell-based, human
Experiment [1] deals with parental MDA-MB-435 β4-negative cells. In words: Matrigel invasion assay, parental MDA-MB-435 cells. The conditions noted are these: transient transfection, parental MDA-MB-435 (no α6β4). The procedure: (§1) FIGS. 5A-5B are graphs and immunoblots showing the effects of NFAT1 and NFAT5 over expression on transfected cells. Parental MDA-MB-435 β4-negative cells were transiently transfected with wild-type NFAT-1 (FIG. 5A) tagged with the HA epitope (NFAT-1) or with wild-type NFAT-5 (FIG. 5B) tagged with the myc epitope (NFAT-5) or control vector alone (vector). Following the transfection protocol, cells were assayed for their ability to migrate or to invade Matrigel. Relative migration/invasion were determined by comparing the amount of migration/invasion obtained from NFAT transfectants to that obtained from cells transfected with vector alone, which was assigned a value of 100%. An aliquot of transfected cells was lysed and nuclear extracts were resolved by SDS PAGE and immunoblotted with anti-HA or anti-myc. The data shown are mean values (±SEM) of 3 experiments performed in triplicate.
(§2) Invasion assays were performed using standard methods (see Shaw et al., Cell 91:949-960, 1997) using Transwell chambers coated with Matrigel. […] Cells that stained positive for β-galactosidase expression were counted, and the mean of triplicate assays for each experimental condition was used as % relative invasion. […]

For experiment [2], the system named is parental MDA-MB-435 cells. Put plainly: Chemotactic migration assay (Transwell without Matrigel), parental MDA-MB-435. The conditions noted are these: transient transfection; conditioned media present, no Matrigel. The procedure:
as §1
Increased cell migration was intimately linked with carcinoma invasion. […]
as §2

Experiment [3] relates to Clone A colon cancer cell line. In words: Matrigel chemoinvasion assay, Clone A cells. The conditions noted are these: transient transfection.
Experimental: Invasion assays were performed using standard methods (see Shaw et al., Cell 91:949-960, 1997) using Transwell chambers coated with Matrigel. Briefly, cells were co-transfected with the indicated NFAT constructs, 1 μg EGFP-N1 (Clontech) and 1 μg pCS2-(n)β-Gal, a •gal expression vector (Dave Turner, University of Michigan) using the Lipofectamine procedure (Life Technologies), and after twenty-four hours, the cells were resuspended in serum-free medium containing 0.1% bovine serum albumin (BSA) and added to each well. […] Cells that stained positive for β-galactosidase expression were counted, and the mean of triplicate assays for each experimental condition was used as % relative invasion.

B1: wild-type NFAT-1: wild-type NFAT-1 tagged with the HA epitope, transiently overexpressed (protein)
chain: MNAPERQPQPDGGDAPGHEPGGSPQDELDFSILFDYEYLNPNEEEPNAHKVASPPSGPAYPDDVMDYGLKPYSPLASLSGEPPGRFGEPDRVGPQKFLSAAKPAGASGLSPRIEITPSHELIQAVGPLRMRDAGLLVEQPPLAGVAASPRFTLPVPGFEGYREPLCLSPASSGSSASFISDTFSPYTSPCVSPNNGGPDDLCPQFQNIPAHYSPRTSPIMSPRTSLAEDSCLGRHSPVPRPASRSSSPGAKRRHSCAEALVALPPGASPQRSRSPSPQPSSHVAPQDHGSPAGYPPVAGSAVIMDALNSLATDSPCGIPPKMWKTSPDPSPVSAAPSKAGLPRHIYPAVEFLGPCEQGERRNSAPESILLVPPTWPKPLVPAIPICSIPVTASLPPLEWPLSSQSGSYELRIEVQPKPHHRAHYETEGSRGAVKAPTGGHPVVQLHGYMENKPLGLQIFIGTADERILKPHAFYQVHRITGKTVTTTSYEKIVGNTKVLEIPLEPKNNMRATIDCAGILKLRNADIELRKGETDIGRKNTRVRLVFRVHIPESSGRIVSLQTASNPIECSQRSAHELPMVERQDTDSCLVYGGQQMILTGQNFTSESKVVFTEKTTDGQQIWEMEATVDKDKSQPNMLFVEIPEYRNKHIRTPVKVNFYVINGKRKRSQPQHFTYHPVPAIKTEPTDEYDPTLICSPTHGGLGSQPYYPQHPMVAESPSCLVATMAPCQQFRTGLSSPDARYQQQNPAAVLYQRSKSLSPSLLGYQQPALMAAPLSLADAHRSVLVHAGSQGQSSALLHPSPTNQQASPVIHYSPTNQQLRCGSHQEFQHIMYCENFAPGTTRPGPPPVSQGQRLSPGSYPTVIQQQNATSQRAAKNGPPVSDQKEVLPAGVTIKQEQNLDQTYLDDELIDTHLSWIQNIL
In the case of B1, the carcinoma invasion result in experiment [1] is “also induced carcinoma invasion”. Besides, in experiment [2], the chemotactic migration entry is “sufficient to increase chemotactic migration”.

B2: DBD5: NFAT-5 dominant negative mutant comprising amino acids 175-471 (SEQ ID NO:14) of NFAT5a (protein, listed as Homo sapiens)
chain: GNGTLENQKGTGVKKSPMLCGQYPVKSEGKELKIVVQPETQHRARYLTEGSRGSVKDRTQQGFPTVKLEGHNEPVVLQVFVGNDSGRVKPHGFYQACRVTGRNTTPCKEVDIEGTTVIEVGLDPSNNMTLAVDCVGILKLRNADVEARIGIAGSKKKSTRARLVFRVNIMRKDGSTLTLQTPSSPILCTQPAGVPEILKKSLHSCSVKGEEEVFLIGKNFLKGTKVIFQENVSDENSWKSEAEIDMELFHQNHLIVKVPPYHDQHITLPVSVGIYVVTNAGRSHDVQPFTYTPDPAA
Take B2: in experiment [3], the “carcinoma invasion (relative invasion vs vector alone)” value is on record as “also inhibited invasion”.

B3: wild-type NFAT-5: wild-type NFAT-5 tagged with the myc epitope, transiently overexpressed (protein)
chain: MSQTSGGEAGSPPPAVVAADASSAPSSSSMGGACSSFTTSSSPTIYSTSVTDSKAMQVESCSSAVGVSNRGVSEKQLTSNTVQQHPSTPKRHTVLYISPPPEDLLDNSRMSCQDEGCGLESEQSCSMWMEDSPSNFSNMSTSSYNDNTEVPRKSRKRNPKQRPGVKRRDCEESNMDIFDADSAKAPHYVLSQLTTDNKGNSKAGNGTLENQKGTGVKKSPMLCGQYPVKSEGKELKIVVQPETQHRARYLTEGSRGSVKDRTQQGFPTVKLEGHNEPVVLQVFVGNDSGRVKPHGFYQACRVTGRNTTPCKEVDIEGTTVIEVGLDPSNNMTLAVDCVGILKLRNADVEARIGIAGSKKKSTRARLVFRVNIMRKDGSTLTLQTPSSPILCTQPAGVPEILKKSLHSCSVKGEEEVFLIGKNFLKGTKVIFQENVSDENSWKSEAEIDMELFHQNHLIVKVPPYHDQHITLPVSVGIYVVTNAGRSHDVQPFTYTPDPAAAGALNVNVKKEISSPARPCSFEEAMKAMKTTGCNLDKVNIIPNALMTPLIPSSMIKSEDVTPMEVTAEKRSSTIFKTTKSVGSTQQTLENISNIAGNGSFSSPSSSHLPSENEKQQQIQPKAYNPETLTTIQTQDISQPGTFPAVSASSQLPNSDALLQQATQFQTRETQSREILQSDGTVVNLSQLTEASQQQQQSPLQEQAQTLQQQISSNIFPSPNSVSQLQNTIQQLQAGSFTGSTASGSSGSVDLVQQVLEAQQQLSSVLFSAPDGNENVQEQLSADIFQQVSQIQSGVSPGMFSSTEPTVHTRPDNLLPGRAESVHPQSENTLSNQQQQQQQQQQVMESSAAMVMEMQQSICQAAAQIQSELFPSTASANGNLQQSPVYQQTSHMMSALSTNEDMQMQCELFSSPPAVSGNETSTTTTQQVATPGTTMFQTSSSGDGEETGTQAKQIQNSVFQTMVQMQHSGDNQPQVNLFSSTKSMMSVQNSGTQQQGNGLFQQGNEMMSLQSGNFLQQSSHSQAQLFHPQNPIADAQNLSQETQGSLFHSPNPIVHSQTSTTSSEQMQPPMFHSQSTIAVLQGSSVPQDQQSTNIFLSQSPMNNLQTNTVAQEAFFAAPNSISPLQSTSNSEQQAAFQQQAPISHIQTPMLSQEQAQPPQQGLFQPQVALGSLPPNPMPQSQQGTMFQSQHSIVAMQSNSPSQEQQQQQQQQQQQQQQQQQSILFSNQNTMATMASPKQPPPNMIFNPNQNPMANQEQQNQSIFHQQSNMAPMNQEQQPMQFQSQSTVSSLQNPGPTQSESSQTPLFHSSPQIQLVQGSPSSQEQQVTLFLSPASMSALQTSINQQDMQQSPLYSPQNNMPGIQGATSSPQPQATLFHNTAGGTMNQLQNSPGSSQQTSGMFLFGIQNNCSQLLTSGPATLPDQLMAISQPGQPQNEGQPPVTTLLSQQMPENSPLASSINTNQNIEKIDLLVSLQNQGNNLTGSF
Consider B3, for which the carcinoma invasion entry in experiment [1] is reported as “this was not observed”. Moreover, the chemotactic migration entry in experiment [2] is on record as “sufficient to increase chemotactic migration”.
